We go through five molecules from patent publication US20060078559A1 (EUROSCREEN S A, published 2006).

For test [1], the target named is T1, human formyl peptide receptor-like 2 (FPRL2) (human) (UniProt P25089).
T1 sequence: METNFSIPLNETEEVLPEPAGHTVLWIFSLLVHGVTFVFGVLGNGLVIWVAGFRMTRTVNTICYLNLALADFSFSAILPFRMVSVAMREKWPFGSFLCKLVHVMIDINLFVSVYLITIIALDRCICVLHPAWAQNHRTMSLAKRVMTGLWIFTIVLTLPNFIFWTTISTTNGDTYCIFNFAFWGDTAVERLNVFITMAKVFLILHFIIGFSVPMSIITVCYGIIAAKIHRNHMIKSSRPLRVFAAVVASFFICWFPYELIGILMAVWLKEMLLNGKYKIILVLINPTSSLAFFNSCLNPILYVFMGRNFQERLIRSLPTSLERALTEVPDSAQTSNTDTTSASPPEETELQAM
Kind of test: cell-based or functional assay.

For test [2], the target named is T2, human FPRL1 (FPR-like 1) (human, UniProt P25090 1-351).
T2 sequence: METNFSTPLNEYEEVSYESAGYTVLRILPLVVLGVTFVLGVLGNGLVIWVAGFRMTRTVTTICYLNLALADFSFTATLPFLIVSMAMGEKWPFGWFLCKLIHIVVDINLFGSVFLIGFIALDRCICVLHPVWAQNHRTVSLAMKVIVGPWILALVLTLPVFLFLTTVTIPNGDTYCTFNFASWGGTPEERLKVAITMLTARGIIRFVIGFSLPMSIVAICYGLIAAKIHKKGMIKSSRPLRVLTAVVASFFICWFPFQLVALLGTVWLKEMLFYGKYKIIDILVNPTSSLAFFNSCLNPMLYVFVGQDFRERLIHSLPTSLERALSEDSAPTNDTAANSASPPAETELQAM
Kind of test: cell-based or functional assay.

Test [3] deals with T3, human FPR (formyl peptide receptor) (human, UniProt P21462 1-350).
T3 chain: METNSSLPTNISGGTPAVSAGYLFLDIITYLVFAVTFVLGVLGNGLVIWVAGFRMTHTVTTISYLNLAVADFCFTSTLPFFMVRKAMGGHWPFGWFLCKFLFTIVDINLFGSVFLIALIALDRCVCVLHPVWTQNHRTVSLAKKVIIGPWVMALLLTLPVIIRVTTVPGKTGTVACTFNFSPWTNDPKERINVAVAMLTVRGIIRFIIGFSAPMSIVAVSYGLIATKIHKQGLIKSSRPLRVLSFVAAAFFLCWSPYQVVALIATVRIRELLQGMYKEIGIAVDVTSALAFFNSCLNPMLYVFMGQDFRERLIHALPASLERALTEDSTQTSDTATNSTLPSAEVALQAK
Kind of test: cell-based or functional assay.

Test [4] concerns the target T3, human FPR (formyl peptide receptor). Kind of test: cell-based or functional assay.
Test [5] has the same target. Kind of test: cell-based or functional assay.
The target in test [6] is T1, human formyl peptide receptor-like 2 (FPRL2) (human). The test is described as follows: competition binding on FPRL2-expressing CHO-K1 cells, tracer F2L-[125I]Tyr.
Test [7] deals with T4, human formyl peptide receptor-like 2 (FPRL2) (human, UniProt P25089 1-353).
T4 sequence: T1 sequence
The test is described as follows: cell-based or functional assay.

For test [8], the target named is T2, human FPRL1 (FPR-like 1). Kind of test: cell-based or functional assay. This is another data set of the same source.
For test [9], the target named is T4, human formyl peptide receptor-like 2 …. Kind of test: competition binding on FPRL2-expressing CHO-K1 cells, tracer F2L-[125I]Tyr. On the procedure:
(§1) FPRL2, FPRL1 and FPR-expressing CHO-K1 cells were plated in 24 wells plates (200,000 cells per well for FPRL2, and 100,000 cells per well for the two other receptors). The next day, the cells were washed twice with a KRH buffer containing 280 mM saccharose and, for FPRL1 and FPR, 0.1% NaN₃. […] Cells were washed twice with ice cold buffer, total radioactivity was recovered with 1 M NaOH and counted in a gamma counter for 2 min.
The EC50 and IC50 parameters of the dose-response curves were determined by non-linear regression using the Graphpad Prism software. The results represent the mean pEC50 or pIC50 (−Log values of EC50 or IC50 expressed in Mol/L) ± s.e.m. for at least three independent experiments (n).

The target of test [10] is T3, human FPR (formyl peptide receptor). Kind of test: competition radioligand binding on FPR-expressing CHO-K1 cells, tracer [125I]-WKYMVm. On the procedure: as §1
Test [11] deals with T2, human FPRL1 (FPR-like 1). The test is described as follows: competition radioligand binding on FPRL1-expressing CHO-K1 cells, tracer [125I]-WKYMVm. The protocol: as §1
Test [12] deals with T2, human FPRL1 (FPR-like 1). Kind of test: cell-based or functional assay. This is another data set of the same source.
In test [13] the target is T4, human formyl peptide receptor-like 2 …. Kind of test: binding assay on FPRL2-expressing CHO-K1 cells.

Where no end group is shown, it is not given here. [ ]: non-standard residue; d: D form. The star is where a group is joined. For = O=C*

For “A1, about 6 kD peptide of porcine heme-binding protein purified from porcine spleen (from UniProt P80015)”, the EC50, aequorin-based functional assay (native fraction A1) in [1] was 200 nM.

B1: FMLP (formyl-methionine-leucyl-phenylalanine) (peptide)
peptide: For-Met-Leu-Phe
In the case of B1, in test [1], the pEC50 (aequorin assay) (-Log of EC50 in Mol/L) is < 6 and the pEC50 (cAMP assay) (-Log of EC50 in Mol/L) was < 6. Also, in the test with human FPRL1 (FPR-like 1) [2], the “pEC50 (aequorin assay)” value was 5.94 -Log of EC50 in Mol/L and the “pEC50 (cAMP assay)” value is < 6 -Log of EC50 in Mol/L. Besides, in test [3], the “pEC50 (aequorin assay)” value was 9.39 -Log of EC50 in Mol/L and the “pEC50 (cAMP assay)” value is 10.2 -Log of EC50 in Mol/L. Moreover, the “EC50 (read off the curve), aequorin luminescence [FPR]” value in test [4] was ~0.7 nM. The “EC50 (read off the curve), inhibition of cAMP accumulation [FPR]” value in [5] is ~0.1 nM. Also, the pIC50 (binding assay) (-Log of IC50 in Mol/L) in test [6] was < 6.

B2: WKYMVm (peptide)
peptide: WKYMV[dM]
notes: Bought from Phoenix Pharmaceuticals; also called W-hexapeptide; synthetic W peptide
As to B2, the pEC50 (aequorin assay) (-Log of EC50 in Mol/L) in test [1] is < 6. The pEC50 (cAMP assay) (-Log of EC50 in Mol/L) in test [1] is < 6. For the same molecule, the “pEC50 (aequorin assay)” value in [7] was < 6 -Log of EC50 in Mol/L. The “EC50 (read off the curve), aequorin luminescence [FPRL1]” value with human FPRL1 (FPR-like 1) [8] was ~0.04 nM. Moreover, the “EC50 (read off the curve), aequorin luminescence [FPR]” value in [4] was ~0.7 nM. In addition, the “pIC50 (binding assay)” value in [9] was < 6 -Log of IC50 in Mol/L. For the same molecule, the “IC50 (read off the curve)” value in [10] is ~70 nM; with human FPRL1 (FPR-like 1) [11], ~20 nM.

B3: SHAAG peptide derived from CCL23 N-terminus (peptide)
peptide: MLWRRKIGPQMTLSHAAG
notes: also called CCL23-derived SHAAG peptide
Consider B3, for which the results for the “pEC50 (aequorin assay)” value (in [7]; with human FPRL1 (FPR-like 1) [2]; in test [3]) were < 6 -Log of EC50 in Mol/L, 9.27 -Log of EC50 in Mol/L and < 6 -Log of EC50 in Mol/L, respectively. Moreover, the entries for the “pEC50 (cAMP assay)” value (in test [7]; with human FPRL1 (FPR-like 1) [2]; in test [3]) were < 6 -Log of EC50 in Mol/L, 9.23 -Log of EC50 in Mol/L and < 6 -Log of EC50 in Mol/L, respectively. In the test with human FPRL1 (FPR-like 1) [8], the “EC50 (read off the curve), aequorin luminescence [FPRL1]” value was ~0.5 nM. The “EC50 (read off the curve), inhibition of cAMP accumulation [FPRL1]” value with human FPRL1 (FPR-like 1) [12] is ~0.7 nM. Further, the “pIC50 (binding assay)” value in [9] is < 6 -Log of IC50 in Mol/L.

B4: F2L[7-21] (peptide)
peptide: NSLFGSVETWPWQVL
notes: Synthetic; also called [7-21]F2L; truncated F2L variant lacking the first six aminoacids
Turning to B4, the binding result in test [13] is given as “no binding”.
